Laboratory results: patent US20240409634A1 (Janssen / Centocor, published 2024)
Numbering of substitutions follows the chain as printed.

B1: CD33 antibody JL2 combined with Vdelta2 antibody 6H4 (JL2x6H4), Fab (CD33) x VHH (Vδ2) Fc construct (bispecific antibody, human IgG1, kappa, L234A L235A)
heavy: EVQLVESGGGLVQPGGSLRLSCVVSGFTFSSYWMTWVRQAPGKGLEWVANIKQDGSERYYVDSVKGRFTISRDSAKNSLYLQMNSLRAEDTAVYYCAREVGYNWNQGGYFDYWGQGTLVTVSSASTKGPSVFPLAPSSKSTSGGTAALGCLVKDYFPEPVTVSWNSGALTSGVHTFPAVLQSSGLYSLSSVVTVPSSSLGTQTYICNVNHKPSNTKVDKKVEPKSCDKTHTCPPCPAPEAAGGPSVFLFPPKPKDTLMISRTPEVTCVVVSVSHEDPEVKFNWYVDGVEVHNAKTKPREEQYNSTYRVVSVLTVLHQDWLNGKEYKCKVSNKALPAPIEKTISKAKGQPREPQVYTLPPSREEMTKNQVSLSCAVKGFYPSDIAVEWESNGQPENNYKTTPPVLDSDGSFFLVSKLTVDKSRWQQGNVFSCSVMHEALHNRFTQKSLSLSPGK
light: DIVMTQSPLSLPVTPGEPASISCRSSQSLLHSDGYNYLDWYLQKSGQSPQLLIYLGSYRASGVPDRFSGSGSGTDFTLKISRVEAEDVGIYYCMQVLQTPWTFGQGTKVEIKRTVAAPSVFIFPPSDEQLKSGTASVVCLLNNFYPREAKVQWKVDNALQSGNSQESVTEQDSKDSTYSLSSTLTLSKADYEKHKVYACEVTHQGLSSPVTKSFNRGEC
chain: EVQLVESGGGLVQAGGSLRLSCAASGRPFSNYGMGWFRQAPGKKREFVAGISWSGGSTDYADSVKGRFTISRDNAKNTVYLQMNSLKPEDTAVYYCAAVFSGAETAYYPSDDYDYWGQGTQVTVSSEPKSSDKTHTCPPCPAPEAAGGPSVFLFPPKPKDTLMISRTPEVTCVVVSVSHEDPEVKFNWYVDGVEVHNAKTKPREEQYNSTYRVVSVLTVLHQDWLNGKEYKCKVSNKALPAPIEKTISKAKGQPREPQVYTLPPSREEMTKNQVSLWCLVKGFYPSDIAVEWESNGQPENNYKTTPPVLDSDGSFFLYSKLTVDKSRWQQGNVFSCSVMHEALHNHYTQKSLSLSPGK
B2: CD33 antibody JL2 combined with Vdelta2 antibody 5D3 (JL2x5D3), Fab (CD33) x VHH (Vδ2) Fc construct (bispecific antibody, human IgG1, kappa, L234A L235A)
heavy: B1 heavy
light: B1 light
chain: EVQLVESGGGLVQAGGSLRLSCAASGRPFSNYAMGWFRQAPGKEREFVTVISWSGGSTYYADSVKGRFTISRDNAKNTVYLQMNSLKPEDTAVYYCAAQFSGASTVVAGTALDYDYWGQGTRVTVSSEPKSSDKTHTCPPCPAPEAAGGPSVFLFPPKPKDTLMISRTPEVTCVVVSVSHEDPEVKFNWYVDGVEVHNAKTKPREEQYNSTYRVVSVLTVLHQDWLNGKEYKCKVSNKALPAPIEKTISKAKGQPREPQVYTLPPSREEMTKNQVSLWCLVKGFYPSDIAVEWESNGQPENNYKTTPPVLDSDGSFFLYSKLTVDKSRWQQGNVFSCSVMHEALHNHYTQKSLSLSPGK
B3: CD33 antibody JL3 combined with Vdelta2 antibody 5D3 (JL3x5D3), Fab (CD33) x VHH (Vδ2) Fc construct (bispecific antibody, human IgG1, lambda, L234A L235A)
heavy: QVQLQESGPGLVKPSETLSLTCSVSGGSIRNYYWSWIRQSAGKELEWFGHIFSTGHINYDSSLKSRVTMSVDTSNNQFSLKLRSVTAADTAVYYCARDNGAALFDFWGQGTLVTVSSASTKGPSVFPLAPSSKSTSGGTAALGCLVKDYFPEPVTVSWNSGALTSGVHTFPAVLQSSGLYSLSSVVTVPSSSLGTQTYICNVNHKPSNTKVDKKVEPKSCDKTHTCPPCPAPEAAGGPSVFLFPPKPKDTLMISRTPEVTCVVVSVSHEDPEVKFNWYVDGVEVHNAKTKPREEQYNSTYRVVSVLTVLHQDWLNGKEYKCKVSNKALPAPIEKTISKAKGQPREPQVYTLPPSREEMTKNQVSLSCAVKGFYPSDIAVEWESNGQPENNYKTTPPVLDSDGSFFLVSKLTVDKSRWQQGNVFSCSVMHEALHNRFTQKSLSLSPGK
light: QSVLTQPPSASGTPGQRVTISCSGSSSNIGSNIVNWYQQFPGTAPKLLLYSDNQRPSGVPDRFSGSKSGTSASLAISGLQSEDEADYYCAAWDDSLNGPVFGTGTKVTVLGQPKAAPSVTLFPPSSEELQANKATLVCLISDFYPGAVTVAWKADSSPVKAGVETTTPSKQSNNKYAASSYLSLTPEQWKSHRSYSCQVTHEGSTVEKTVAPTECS
chain: B2 chain
B4: CD33 antibody JL5 combined with Vdelta2 antibody 5D3 (JL5x5D3), Fab (CD33) x VHH (Vδ2) Fc construct (bispecific antibody, human IgG1, lambda, L234A L235A)
heavy: QVQLQESGPGLVKPSETLSLTCSVSGASIRNYYWSWIRQTAGKGLEWLGHIYSTGNIHYNPSLKSRVTMSVDTSNNQFSLKLRSVTAADTAVYYCARDNGAALFDYWGQGTLVTVSSASTKGPSVFPLAPSSKSTSGGTAALGCLVKDYFPEPVTVSWNSGALTSGVHTFPAVLQSSGLYSLSSVVTVPSSSLGTQTYICNVNHKPSNTKVDKKVEPKSCDKTHTCPPCPAPEAAGGPSVFLFPPKPKDTLYITREPEVTCVVVSVSHEDPEVKFNWYVDGVEVHNAKTKPREEQYNSTYRVVSVLTVLHQDWLNGKEYKCKVSNKALPAPIEKTISKAKGQPREPQVYTLPPSREEMTKNQVSLSCAVKGFYPSDIAVEWESNGQPENNYKTTPPVLDSDGSFFLVSKLTVDKSRWQQGNVFSCSVMHEALHNRFTQKSLSLSPGK
light: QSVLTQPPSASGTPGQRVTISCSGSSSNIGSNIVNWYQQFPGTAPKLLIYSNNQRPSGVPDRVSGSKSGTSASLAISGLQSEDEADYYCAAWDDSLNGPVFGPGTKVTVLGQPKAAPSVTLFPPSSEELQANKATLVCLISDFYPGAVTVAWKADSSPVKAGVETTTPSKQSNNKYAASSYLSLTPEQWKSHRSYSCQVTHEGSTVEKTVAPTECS
chain: B2 chain with M164Y, S166T, T168E
B5: CD33 antibody JL6 combined with Vdelta2 antibody 5D3 (JL6x5D3), Fab (CD33) x VHH (Vδ2) Fc construct (bispecific antibody, human IgG1, lambda, L234A L235A)
heavy: QVQLQESGPGLVKPSETLSLTCTVSGGSISSYYWGWIRQPPGKGLEWIGYIYYSGSTNYNPSLKSRVTISVDTSKNQFSLKLSSVTAADTAVYYCARMWEILGFDPWGQGTLVTVSSASTKGPSVFPLAPSSKSTSGGTAALGCLVKDYFPEPVTVSWNSGALTSGVHTFPAVLQSSGLYSLSSVVTVPSSSLGTQTYICNVNHKPSNTKVDKKVEPKSCDKTHTCPPCPAPEAAGGPSVFLFPPKPKDTLMISRTPEVTCVVVSVSHEDPEVKFNWYVDGVEVHNAKTKPREEQYNSTYRVVSVLTVLHQDWLNGKEYKCKVSNKALPAPIEKTISKAKGQPREPQVYTLPPSREEMTKNQVSLSCAVKGFYPSDIAVEWESNGQPENNYKTTPPVLDSDGSFFLVSKLTVDKSRWQQGNVFSCSVMHEALHNRFTQKSLSLSPGK
light: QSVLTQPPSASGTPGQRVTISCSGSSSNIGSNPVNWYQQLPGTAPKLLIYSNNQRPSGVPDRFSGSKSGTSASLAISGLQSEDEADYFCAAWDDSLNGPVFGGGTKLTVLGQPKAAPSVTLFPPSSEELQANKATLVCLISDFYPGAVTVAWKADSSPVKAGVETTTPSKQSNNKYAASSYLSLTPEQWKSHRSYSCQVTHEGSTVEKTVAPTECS
chain: B2 chain
B6: CD33 antibody JL3 combined with Vdelta2 antibody 6H4 (JL3x6H4), Fab (CD33) x VHH (Vδ2) Fc construct (bispecific antibody, human IgG1, lambda, L234A L235A)
heavy: B3 heavy
light: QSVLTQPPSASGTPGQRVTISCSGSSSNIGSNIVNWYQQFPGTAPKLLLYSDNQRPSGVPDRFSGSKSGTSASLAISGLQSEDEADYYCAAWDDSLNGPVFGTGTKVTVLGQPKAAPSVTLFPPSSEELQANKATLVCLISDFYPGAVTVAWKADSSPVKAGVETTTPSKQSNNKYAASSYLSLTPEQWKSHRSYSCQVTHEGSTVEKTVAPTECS
chain: B1 chain
B7: CD33 antibody JL5 combined with Vdelta2 antibody 6H4 (JL5x6H4), Fab (CD33) x VHH (Vδ2) Fc construct (bispecific antibody, human IgG1, lambda, L234A L235A)
heavy: B4 heavy
light: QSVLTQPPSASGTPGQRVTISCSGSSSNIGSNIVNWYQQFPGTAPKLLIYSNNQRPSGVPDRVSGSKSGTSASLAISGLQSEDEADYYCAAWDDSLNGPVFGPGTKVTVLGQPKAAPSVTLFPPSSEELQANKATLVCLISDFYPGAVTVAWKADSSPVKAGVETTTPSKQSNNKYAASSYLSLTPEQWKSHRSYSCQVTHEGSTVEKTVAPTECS
chain: B1 chain with M163Y, S165T, T167E
B8: CD33 antibody JL6 combined with Vdelta2 antibody 6H4 (JL6x6H4), Fab (CD33) x VHH (Vδ2) Fc construct (bispecific antibody, human IgG1, lambda, L234A L235A)
heavy: B5 heavy
light: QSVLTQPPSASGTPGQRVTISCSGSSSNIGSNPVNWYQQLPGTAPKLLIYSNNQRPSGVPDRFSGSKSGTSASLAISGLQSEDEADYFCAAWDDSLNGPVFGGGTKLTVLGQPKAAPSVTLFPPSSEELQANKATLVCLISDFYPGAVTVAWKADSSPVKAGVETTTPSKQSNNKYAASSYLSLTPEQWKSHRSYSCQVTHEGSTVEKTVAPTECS
chain: B1 chain

Biological target: human CD33 on CD33-expressing THP-1 cells (human, UniProt P20138 18-364)
Sequence (P20138 18-364): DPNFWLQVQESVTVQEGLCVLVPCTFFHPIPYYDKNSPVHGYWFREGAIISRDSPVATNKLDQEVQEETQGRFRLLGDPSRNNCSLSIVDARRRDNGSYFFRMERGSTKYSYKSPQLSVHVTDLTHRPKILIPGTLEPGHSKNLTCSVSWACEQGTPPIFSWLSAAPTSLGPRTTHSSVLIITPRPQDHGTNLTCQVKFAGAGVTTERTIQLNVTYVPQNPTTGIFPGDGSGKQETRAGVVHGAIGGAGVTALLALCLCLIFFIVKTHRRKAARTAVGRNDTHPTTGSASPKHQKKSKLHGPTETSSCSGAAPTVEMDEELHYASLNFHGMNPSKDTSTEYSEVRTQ
Assay: cell-based or functional assay

| Binder | Cytotox EC50 (pM) E:T 1:1 - 22 hrs | Cytotox EC50 (pM) E:T 1:20 - 94 hrs |
| --- | --- | --- |
| B1 | 4 pM | 20 pM |
| B2 | 28 pM | ~380 pM |
| B3 | 15 pM | 77 pM |
| B4 | 12 pM | 45 pM |
| B5 | 63 pM | ~560 pM |
| B6 | 2.5 pM | 12 pM |
| B7 | 5.4 pM | 15 pM |
| B8 | 6.2 pM | 30 pM |
